Laboratory results as given in the supplement of paper PMC12764529.
± gives the half width of the 95% confidence interval.

Columns and labels:
[1] = folding stability dG unfold (combined trypsin and chymotrypsin); higher = more stable
Procedure, shortened: (§1)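 Digests were run with trypsin and chymotrypsin at 11 concentrations in threefold dilutions, plus a no-protease condition, on designed mini-proteins in a PA-tagged cDNA display construct. The mini-proteins were under 80 residues, had no cysteine, and were kept only when AlphaFold2 dimer inter-PAE was above 15. After sequencing, Bayesian fitting of the counts gave K50, from which unfolding free energy was derived against a sequence-predicted unfolded-state K50 and a shared folded-state K50, per protease or combined.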

[2] = folding stability dG unfold from chymotrypsin proteolysis; higher = more stable
Procedure, shortened: as §1

Row | Sequence | folding stability dG unfold [1] [kcal/mol] | folding stability dG unfold [2] [kcal/mol]
1 | SAGGSAGGSPKKRTVEIDEWDPEEGNVRARIRDDDEEREFPFRTPEDLEDLANEGGIDKITPHSAGGSAGGS [r12_421_TrROS] | 0.0607 ± 0.095 | 0.518 ± 0.027
2 | SAGGSAGGSPNQDFKVKVKIKEFNPGNGHIRIDVEVEGDNPQVQDFAKGIAEGFGFPVEVEPISAGGSAGGS [r20_157_TrROS] | -0.0925 ± 0.14 | 0.34 ± 0.038
3 | SAGGSAGGSQWIEIELPLPNGRNIQIEMWPNNGMVDVEWPDGKEVEFPVETADDALDRVLDALSAGGSAGGS [r12_866_TrROS] | 0.0352 ± 0.21 | 0.552 ± 0.12
4 | SAGGSAGGSSMEVVTPIERPVDVTSPENGEVVKVRVKTLVGKDPNAWTTETTLTLPDGTPVALSAGGSAGGS [r12_283_JUSTAS] | 0.337 ± 0.2 | 0.988 ± 0.11
5 | SAGGSAGGSVEELLAAATSEDPAKGLARAELPSGATATVDPAAGTVTITFTSPGTPSTTTVPAPSAGGSAGG [r6_793_JUSTAS] | < -1 | 0.33 ± 0.13
6 | SAGGSAGGSVYLDPAVLAELEALRQAGLRVAEVREERVEVEGGPPRRVDVRAVVVDLPPEALAASAGGSAGG [r6_771_JUSTAS] | -0.11 ± 0.18 | 0.621 ± 0.056
7 | SAGGSAGGTIRIPPAARNMMKELQKQGFVIEEIKIDEIERTENGPPWIEIDFEIKKLPPEALKDSAGGSAGG [r6_771_TrROS] | -0.939 ± 0.89 | -0.317 ± 0.33
8 | SAGGSAGGVEELAKKLNIEVTGNEVTITLKKKKVTVKKLKAPPLKVKKYVDKKTKKIVKTEVELSAGGSAGG [r6_981_TrROS_Hall] | 0.431 ± 0.29 | 0.9 ± 0.28
9 | SAGGSAIKIDPDYGTIEIYNPDNGKEIEIPIDGLPPGRKMDIEINNDKIEIKMPGGTRELPIDDIKSAGGSA [r15_864_TrROS] | 0.194 ± 0.26 | 0.655 ± 0.068
10 | SAGGSAKTIVIPAEDLTPEEIKALAEENKDKIVIYNKKTKKVVTIEVKDGKITKVEEFPVSEEELKSAGGSA [r15_751_TrROS_Hall] | -0.256 ± 0.67 | 0.173 ± 0.3
11 | SAGGSALKVKSVHQNPDDNYYMITVTIPGPDKAPREIMFPSPEDLEDKLDNLPPGIESVEIHPMKPSAGGSA [r15_589_TrROS] | < -1 | -0.203 ± 0.19
12 | SAGGSAMKIEEEEVEVPLSDEELEALKKNPGKTVKVKVIKIEIEMPEEEKKRLAKELEEKFNIKIESAGGSA [r15_347_TrROS_Hall] | -0.146 ± 0.27 | 0.0343 ± 0.2
13 | SAGGSAMSLEELKKKKVKVKVKEIEVPKGAKIPDGKTVKEGEKILVVDGKVYLPNGKLIAEVEVEESAGGSA [r15_12_TrROS_Hall] | -0.629 ± 0.47 | -0.621 ± 0.22
14 | SAGGSAMSQEEIENKPIEEIAKAILENFPGNTKVEHEFTFKDGSKLRIVVELPEDGEPKIEAEPIGSAGGSA [r15_857_TrMRF] | -0.452 ± 0.56 | -0.0162 ± 0.39
15 | SAGGSASMRTVTLTSTETLELKDPSGNLRVETTPVVVTVPVEVPDPNLPPPAVNSPVLTELLLRLLSAGGSA [r15_728_JUSTAS] | 0.0436 ± 0.084 | 0.413 ± 0.064
16 | SAGGSASTTPIKFPNGFEVTKIEEGKGLVYIKYSPENPEILEKLGVEALETNENEVIVPREAIEKKSAGGSA [r15_984_JUSTAS] | -0.993 ± 0.36 | -0.634 ± 0.28
17 | SAGGSATFEEALREVAEPTGAVPYVDPETGVAYVDFPDGKELEIEVPDGDRIEVRVLPDGRAVARGSAGGSA [r15_256_TrMRF] | < -1 | -0.494 ± 0.19
18 | SAGGSEAAPGEKVTITTVTSSVLKTYETPTGTLETESSTSVTTTTVTVPAAAAAAAGVRYSPDPLLSAGGSA [r2_495_JUSTAS] | < -1 | -0.348 ± 0.14
19 | SAGGSGSIVIKSIEPRLRLERLPNGELREVKEVEVDIEVEVDPETAPEEEIEAVREEAEKLAEELSSAGGSA [r2_40_JUSTAS] | 0.144 ± 0.21 | 0.713 ± 0.082
20 | SAGGSMKLKPGDEIWVPENMPEDAIKDEIKEWADNFNIKGIDDIEPPKPGWHRIKVEWPNGRKLTISAGGSA [r2_168_TrROS] | -0.748 ± 0.3 | -0.147 ± 0.17
21 | SAGGSSAEELAEALKKKLEELGLEIKELELKVKKVKVEEKPKPKVELKEEKVEVKEKKFYSEEEKKSAGGSA [r2_384_TrROS_Hall] | < -1 | -0.485 ± 0.69
22 | SAGGSSLPPEYTVTEVEREFTTPEDVAEARAAAEAAAAAGAEVLEVTVERPEDGSYRVRFTLATPRSAGGSA [r2_350_JUSTAS] | 0.0151 ± 0.24 | 0.611 ± 0.22
